Laboratory results as given in IntAct's records for PubMed 16328881.

B1: Minichromosome maintenance protein 10 (Saccharomyces cerevisiae), P32354 (parent)
chain: MNDPREILAVDPYNNITSDEEDEQAIARELEFMERKRQALVERLKRKQEFKKPQDPNFEAIEVPQSPTKNRVKVGSHNATQQGTKFEGSNINEVRLSQLQQQPKPPASTTTYFMEKFQNAKKNEDKQIAKFESMMNARVHTFSTDEKKYVPIITNELESFSNLWVKKRYIPEDDLKRALHEIKILRLGKLFAKIRPPKFQEPEYANWATVGLISHKSDIKFTSSEKPVKFFMFTITDFQHTLDVYIFGKKGVERYYNLRLGDVIAILNPEVLPWRPSGRGNFIKSFNLRISHDFKCILEIGSSRDLGWCPIVNKKTHKKCGSPINISLHKCCDYHREVQFRGTSAKRIELNGGYALGAPTKVDSQPSLYKAKGENGFNIIKGTRKRLSEEEERLKKSSHNFTNSNSAKAFFDEKFQNPDMLANLDNKRRKIIETKKSTALSRELGKIMRRRESSGLEDKSVGERQKMKRTTESALQTGLIQRLGFDPTHGKISQVLKSSVSGSEPKNNLLGKKKTVINDLLHYKKEKVILAPSKNEWFKKRSHREEVWQKHFGSKETKETSDGSASDLEII

Variants of: B1
Details: with sir3_yeast SIR3, P06701
Chain of sir3_yeast SIR3, P06701 (P06701 whole entry): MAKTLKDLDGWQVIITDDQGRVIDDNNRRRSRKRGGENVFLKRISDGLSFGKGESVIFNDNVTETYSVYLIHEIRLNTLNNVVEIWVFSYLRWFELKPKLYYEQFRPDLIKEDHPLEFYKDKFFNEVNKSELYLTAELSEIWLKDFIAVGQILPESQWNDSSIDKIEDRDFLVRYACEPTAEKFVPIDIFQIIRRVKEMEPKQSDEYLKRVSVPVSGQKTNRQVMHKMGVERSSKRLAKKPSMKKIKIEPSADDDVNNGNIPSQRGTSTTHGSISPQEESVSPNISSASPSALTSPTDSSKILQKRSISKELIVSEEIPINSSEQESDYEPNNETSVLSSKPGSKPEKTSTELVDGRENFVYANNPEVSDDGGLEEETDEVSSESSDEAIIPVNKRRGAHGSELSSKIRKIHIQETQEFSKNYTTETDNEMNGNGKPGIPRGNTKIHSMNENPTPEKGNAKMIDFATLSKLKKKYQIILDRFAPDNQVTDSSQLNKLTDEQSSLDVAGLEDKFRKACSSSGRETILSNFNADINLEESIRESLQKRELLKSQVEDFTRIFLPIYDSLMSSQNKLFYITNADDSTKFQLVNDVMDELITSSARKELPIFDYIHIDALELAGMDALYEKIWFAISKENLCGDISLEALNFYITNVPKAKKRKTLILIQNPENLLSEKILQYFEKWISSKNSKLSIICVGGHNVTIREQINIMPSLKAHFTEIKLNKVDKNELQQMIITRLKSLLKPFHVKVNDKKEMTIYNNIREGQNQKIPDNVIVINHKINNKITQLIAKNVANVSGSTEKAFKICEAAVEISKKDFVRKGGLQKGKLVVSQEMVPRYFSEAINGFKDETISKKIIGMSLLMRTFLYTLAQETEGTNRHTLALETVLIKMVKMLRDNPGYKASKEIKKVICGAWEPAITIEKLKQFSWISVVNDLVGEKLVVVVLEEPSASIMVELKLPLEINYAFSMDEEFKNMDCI

Question: MNDPREILAVDPYNNITSDEEDEQAIARELEFMERKRQALVERLKRKQEFKKPQDPNFEAIEVPQSPTKNRVKVGSHNATQQGTKFEGSNINEVRLSQLQQQPKPPASTTTYFMEKFQNAKKNEDKQIAKFESMMNARVHTFSTDEKKYVPIITNELESFSNLWVKKRYIPEDDLKRALHEIKILRLGKLFAKIRPPKFQEPEYANWATVGLISHKSDIKFTSSEKPVKFFMFTITDFQHTLDVYIFGKKGVERYYNLRLGDVIAILNPEVLPWRPSGRGNFIKSFNLRISHDFKCILEIGSSRDLGWCPIVNKKTHKKYGSPINISLHKCCDYHREVQFRGTSAKRIELNGGYALGAPTKVDSQPSLYKAKGENGFNIIKGTRKRLSEEEERLKKSSHNFTNSNSAKAFFDEKFQNPDMLANLDNKRRKIIETKKSTALSRELGKIMRRRESSGLEDKSVGERQKMKRTTESALQTGLIQRLGFDPTHGKISQVLKSSVSGSEPKNNLLGKKKTVINDLLHYKKEKVILAPSKNEWFKKRSHREEVWQKHFGSKETKETSDGSASDLEII [C320Y] was tested. Which “effect of a mutation on the interaction” value did it give?
Answer: Its value is “disrupting interaction strength”.

Question: How did the “effect of a mutation on the interaction” value turn out when MNDPREILAVDPYNNITSDEEDEQAIARELEFMERKRQALVERLKRKQEFKKPQDPNFEAIEVPQSPTKNRVKVGSHNATQQGTKFEGSNINEVRLSQLQQQPKPPASTTTYFMEKFQNAKKNEDKQIAKFESMMNARVHTFSTDEKKYVPIITNELESFSNLWVKKRYIPEDDLKRALHEIKILRLGKLFAKIRPPKFQEPEYANWATVGLISHKSDIKFTSSEKPVKFFMFTITDFQHTLDVYIFGKKGVERYYNLRLGDVIAILNLEVLPWRPSGRGNFIKSFNLRISHDFKCILEIGSSRDLGWCPIVNKKTHKKCGSPINISLHKCCDYHREVQFRGTSAKRIELNGGYALGAPTKVDSQPSLYKAKGENGFNIIKGTRKRLSEEEERLKKSSHNFTNSNSAKAFFDEKFQNPDMLANLDNKRRKIIETKKSTALSRELGKIMRRRESSGLEDKSVGERQKMKRTTESALQTGLIQRLGFDPTHGKISQVLKSSVSGSEPKNNLLGKKKTVINDLLHYKKEKVILAPSKNEWFKKRSHREEVWQKHFGSKETKETSDGSASDLEII [P269L] was run?
Answer: The value was “disrupting interaction strength”.

Variants of: B1
Details: with sir2_yeast SIR2, P06700
Chain of sir2_yeast SIR2, P06700 (P06700 whole entry): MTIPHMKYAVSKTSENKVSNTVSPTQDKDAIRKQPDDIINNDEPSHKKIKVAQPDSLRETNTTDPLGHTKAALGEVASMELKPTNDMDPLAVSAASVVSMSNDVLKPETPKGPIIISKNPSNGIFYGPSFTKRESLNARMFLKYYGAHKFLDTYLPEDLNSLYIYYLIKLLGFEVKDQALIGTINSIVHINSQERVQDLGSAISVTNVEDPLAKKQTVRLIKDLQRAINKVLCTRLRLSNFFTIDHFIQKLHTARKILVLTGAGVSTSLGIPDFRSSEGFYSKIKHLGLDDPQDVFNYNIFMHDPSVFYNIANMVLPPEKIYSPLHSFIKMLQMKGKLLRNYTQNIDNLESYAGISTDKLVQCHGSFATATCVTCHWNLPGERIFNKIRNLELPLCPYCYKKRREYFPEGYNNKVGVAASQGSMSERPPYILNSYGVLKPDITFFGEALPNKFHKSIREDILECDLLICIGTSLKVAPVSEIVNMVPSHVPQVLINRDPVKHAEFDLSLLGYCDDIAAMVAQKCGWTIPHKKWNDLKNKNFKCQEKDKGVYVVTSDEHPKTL

Question: Which “effect of a mutation on the interaction” value does the source give for MNDPREILAVDPYNNITSDEEDEQAIARELEFMERKRQALVERLKRKQEFKKPQDPNFEAIEVPQSPTKNRVKVGSHNATQQGTKFEGSNINEVRLSQLQQQPKPPASTTTYFMEKFQNAKKNEDKQIAKFESMMNARVHTFSTDEKKYVPIITNELESFSNLWVKKRYIPEDDLKRALHEIKILRLGKLFAKIRPPKFQEPEYANWATVGLISHKSDIKFTSSEKPVKFFMFTITDFQHTLDVYIFGKKGVERYYNLRLGDVIAILNLEVLPWRPSGRGNFIKSFNLRISHDFKCILEIGSSRDLGWCPIVNKKTHKKCGSPINISLHKCCDYHREVQFRGTSAKRIELNGGYALGAPTKVDSQPSLYKAKGENGFNIIKGTRKRLSEEEERLKKSSHNFTNSNSAKAFFDEKFQNPDMLANLDNKRRKIIETKKSTALSRELGKIMRRRESSGLEDKSVGERQKMKRTTESALQTGLIQRLGFDPTHGKISQVLKSSVSGSEPKNNLLGKKKTVINDLLHYKKEKVILAPSKNEWFKKRSHREEVWQKHFGSKETKETSDGSASDLEII [P269L] here?
Answer: Its value is “disrupting interaction strength”.
